Measurements taken from the supplement of paper PMC12042874.
± gives the uncertainty stated by the source.

Assay: amyloid nucleation score (Sup35N fusion, yeast selection) (log enrichment); library NNK1; higher = more nucleation; inactive = no reads after selection
Outline: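 In psi-negative yeast, Sup35N fusions carrying peptides of 20 random codons were induced with 100 μM copper sulfate for 24 hours. The cells then grew 7 days at 30°C on medium lacking adenine and uracil, and plasmid inserts from input and output were Illumina-sequenced, excluding sequences with under 100 input reads. Nucleation score is the DiMSum log enrichment of output over input reads, centred on the mode score of non-aggregating sequences.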

Substance | amyloid nucleation score
GRFRARIHCSPQARVTFVAS | -0.113 ± 0.71
GRGSMLFW | 0.942 ± 0.58
GRGWYGSRYARVVHFVWGYA | -0.487 ± 0.34
GRLCPLRSKTSFNCY | -1.81 ± 1.3
GRLISETNLAKSYSL | -0.187 ± 0.33
GRMTILSVNSS | 0.328 ± 0.46
GRRYELPGPSPYCVRDSGRR | -0.301 ± 0.65
GRVVAHLNRRHR | 1.38 ± 0.43
GSELCGVGARSQDSRIAGRV | -0.282 ± 0.49
GSFHTQRTWAFVVVVEVHGK | 0.232 ± 0.41
GSGINVRDITFIL | 4.42 ± 0.071
GSHTGEFRYVF | -0.83 ± 0.42
GSLKEMEKHPWKKATTYQYA | 1.47 ± 0.23
GSMQQNSFREMEPRDSTGGA | -0.844 ± 0.94
GSNIGQSFWYRRWVQQRTAE | -1.13 ± 2.7
GSNPVVSLW | 0.076 ± 0.44
GSQSEVVCGW | 1.14 ± 0.74
GSRSHRSH | 0.751 ± 0.67
GSSKNFH | 0.972 ± 0.43
GSSLTPCFEWMIIRCVEEDG | 1.05 ± 0.79
GSTSCK | 0.79 ± 0.43
GSVAKRPVVKISRHPLCMVW | 0.364 ± 0.24

Substance | amyloid nucleation score
GSYECFHHLYCGWQSLLWAN | 0.854 ± 0.39
GTHEVLCNDHPCVYRHILRC | -0.753 ± 0.3
GTLNMIFRFGMHAIVSYFWG | 0.024 ± 0.4
GTLYWLHASV | 0.617 ± 0.47
GTSKTTGERDWLRPMTRDI | -0.94 ± 2.7
GTSSGLV | 0.104 ± 1.1
GTSVN | 1.08 ± 0.17
GTTHRDS | -0.263 ± 0.35
GTVPNVRKYPCFLCSMRR | -1.28 ± 1.4
GTVYWIYGGINLSAVLSSRS | 3.44 ± 0.1
GTWNF | -0.023 ± 0.55
GVAMCEEWRLMISE | 0.185 ± 0.74
GVASNYPNHLVLNSR | -0.211 ± 0.34
GVATPPLRANSLEG | inactive
GVDRVQCVFLSRVEWLGTPG | 0.198 ± 0.67
GVESLLCYASPLVSWAIFAD | -0.424 ± 0.28
GVFEPCRVRSFMHIVSIADR | -0.306 ± 1.7
GVGNTRQRVFRVVHCLAMLQ | 0.634 ± 0.88
GVIYS | 0.077 ± 0.28
GVLILCVSAKSRSAAVKQLS | 0.755 ± 0.68
GVLLGVTSFEFFMGTLEVAW | 0.188 ± 1
GVMSTDPFLTLYTVLVGVLI | inactive

Substance | amyloid nucleation score
GVTSR | 1.25 ± 0.72
GWCNMGGANVWKMQVTGPAE | 0.948 ± 0.58
GWCYSDVVMLPF | -0.141 ± 0.34
GWGLA | inactive
GWMYVSMLFGVG | -0.455 ± 1.7
GWSIMVGQMASLLWCIRAGT | 0.116 ± 0.3
GYEVKMHYSVLIINNSCPCL | 0.95 ± 0.25
GYFDMFTKIVVL | 0.856 ± 0.45
GYFYFRQIIQSDRPFIYNIP | -0.16 ± 0.38
GYGSHNEAGKLGVGGEVCYG | 3.85 ± 0.065
GYKGQCIIYSTVDSRN | 0.07 ± 0.35
GYKRFYLLVKLYVFERINIA | -0.244 ± 0.31
GYNNRRDFPLSMPCRH | -0.363 ± 0.88
GYNVAFILHTTVKCVCVEM | 0.757 ± 0.41
GYPGCHLFVSWTTVGPVFFY | 8.239 ± 0.047
GYRCMHLWTRSPSFIRPVVS | 0.67 ± 0.97
GYRCSWNDPMVNTVFFV | 0.98 ± 0.56
GYSIDIP | inactive
GYSYTCPLS | -0.217 ± 0.36
GYWPNKRWSRMKPIYPHSNV | 1.34 ± 0.18
HAHVQCGESE | 0.092 ± 0.73
HALTSDRYWKERPTIPRFRF | -0.174 ± 0.36

Substance | amyloid nucleation score
HAVQLRYLKKKWGWYALCKR | 0.712 ± 0.72
HCILHKANFRGFTHSSYEVG | 4.68 ± 0.1
HCIWKMLNLFSSLRLSIKLI | -2.16 ± 2.4
HCLSNCSSRVGGFSFNAPVA | 0.5 ± 0.45
HCNIMIDSTSLFNGGLVFYN | 4.83 ± 0.059
HCNSNVTWKV | 0.414 ± 0.63
HCQVQHLTQFMWVIVMRTRD | 3.5 ± 0.14
HCVRQTSWMLAENLAWEVWL | 1.1 ± 0.58
HCYRITYKRSNRDVL | 1.76 ± 0.36
HDFRFIGSWHLTYGPSVTTT | -0.471 ± 0.49
HDICTLWILSAL | 0.602 ± 0.78
HDSNHFLRDLLVILRYYEAV | inactive
HEKVV | 0.292 ± 0.32
HFGWNLGPMHTMKSSV | 0.464 ± 0.49
HFICKLND | 0.354 ± 0.34
HFKAYAFLDPFPLAPKL | 0.463 ± 0.64
HFMWAYRCSDYDLM | 2.01 ± 0.11
HFQKYKELVVSKHN | 0.743 ± 1.1
HFTIKF | 1.06 ± 0.27
HFYSRYRTPQTRS | -0.549 ± 0.64
HGALMNNWDLKACFC | -0.786 ± 0.41
